Tests used:
[1] = target: T1, enzyme I (phosphoenolpyruvate-protein-phosphatase, EC 2.7.3.9) of the bacterial phosphotransferase system (E. coli, UniProt P08839 1-575); test: cell-based or functional assay
[2] = target: T1, enzyme I …; test: cell-based or functional assay; remark: listed apart in the source

Binder | inhibition IC50 (µM) of in vitro phosphotransferase activity [1] [µM] | uncoupling P1/peptide (x IC50/h) [1] [x IC50/h] | inhibition IC50 [2] [µM] | uncoupling P1/peptide/h [2] [P1/peptide/h]
KKFHLRK [peptide 1] | 25 | 3.2 |  | 
KKWHKRKK [peptide 8] | 375 | 64.2 |  | 
KKFHIRKR [peptide 9] | 1200 | 132 |  | 
WHKR [peptide 12] | 410 |  |  | 
WHKR [peptide 13] | 500 |  |  | 
GLRFGKTRVHYLVLG [peptide 14] | 650 |  |  | 
SGRKSTRVHHWLLVL [peptide 15] | 1380 |  |  | 
KKFALRK [peptide 2] | 60 | 6.6 |  | 
DGARLHYLF [peptide 22] |  |  | 820 | 0.05
RHRTLF [peptide 25] |  |  | 530 | 0.23
RHYLLF [peptide 26] |  |  | 300 | 0.29
RHITSL [peptide 27] |  |  | 440 | 0.215
RHITLF [peptide 28] |  |  | 160 | 0.31
SSLRGHRWVY [peptide 17] |  |  |  | 0.07
MRLLKTLCFGLCG [peptide 31] |  |  | 4900 | 

Source: patent US6777176 (ARPIDA, dated 2004)
